Results reported in patent US20200237800.

Tests used:
Experiment in all cases: pulldown
Details in all cases: sense/antisense normalized AUC more than 2-fold
[1] = biological target: FLG2 (Filaggrin-2) (Homo sapiens) (UniProt Q5D862)
[2] = biological target: ACLY (ATP-citrate synthase) (Homo sapiens) (UniProt P53396)
[3] = biological target: T1, SFPQ (splicing factor, proline- and glutamine-rich) (Homo sapiens) (UniProt P23246)
T1 sequence: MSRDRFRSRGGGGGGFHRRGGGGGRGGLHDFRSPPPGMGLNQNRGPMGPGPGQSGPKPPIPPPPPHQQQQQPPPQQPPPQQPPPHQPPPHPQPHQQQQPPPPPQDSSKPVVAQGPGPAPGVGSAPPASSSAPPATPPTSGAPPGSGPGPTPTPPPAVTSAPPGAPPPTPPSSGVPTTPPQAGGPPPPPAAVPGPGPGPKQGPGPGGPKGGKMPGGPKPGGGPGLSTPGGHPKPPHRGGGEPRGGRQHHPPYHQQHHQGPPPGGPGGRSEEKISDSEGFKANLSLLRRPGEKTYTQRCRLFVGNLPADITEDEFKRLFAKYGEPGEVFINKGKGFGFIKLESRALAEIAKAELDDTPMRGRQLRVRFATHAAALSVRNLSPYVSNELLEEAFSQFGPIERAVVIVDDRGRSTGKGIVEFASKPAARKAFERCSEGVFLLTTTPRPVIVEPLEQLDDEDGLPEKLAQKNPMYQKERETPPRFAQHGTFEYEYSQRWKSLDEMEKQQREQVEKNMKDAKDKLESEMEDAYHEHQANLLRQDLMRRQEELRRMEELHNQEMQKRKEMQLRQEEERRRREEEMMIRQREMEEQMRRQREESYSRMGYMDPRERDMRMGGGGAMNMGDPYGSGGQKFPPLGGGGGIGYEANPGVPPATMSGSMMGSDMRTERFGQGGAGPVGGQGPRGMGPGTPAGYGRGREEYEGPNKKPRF

Measured: binding signal (fraction of sense)

ACLY (ATP-citrate synthase) (Homo sapiens), sequence (P53396 whole entry): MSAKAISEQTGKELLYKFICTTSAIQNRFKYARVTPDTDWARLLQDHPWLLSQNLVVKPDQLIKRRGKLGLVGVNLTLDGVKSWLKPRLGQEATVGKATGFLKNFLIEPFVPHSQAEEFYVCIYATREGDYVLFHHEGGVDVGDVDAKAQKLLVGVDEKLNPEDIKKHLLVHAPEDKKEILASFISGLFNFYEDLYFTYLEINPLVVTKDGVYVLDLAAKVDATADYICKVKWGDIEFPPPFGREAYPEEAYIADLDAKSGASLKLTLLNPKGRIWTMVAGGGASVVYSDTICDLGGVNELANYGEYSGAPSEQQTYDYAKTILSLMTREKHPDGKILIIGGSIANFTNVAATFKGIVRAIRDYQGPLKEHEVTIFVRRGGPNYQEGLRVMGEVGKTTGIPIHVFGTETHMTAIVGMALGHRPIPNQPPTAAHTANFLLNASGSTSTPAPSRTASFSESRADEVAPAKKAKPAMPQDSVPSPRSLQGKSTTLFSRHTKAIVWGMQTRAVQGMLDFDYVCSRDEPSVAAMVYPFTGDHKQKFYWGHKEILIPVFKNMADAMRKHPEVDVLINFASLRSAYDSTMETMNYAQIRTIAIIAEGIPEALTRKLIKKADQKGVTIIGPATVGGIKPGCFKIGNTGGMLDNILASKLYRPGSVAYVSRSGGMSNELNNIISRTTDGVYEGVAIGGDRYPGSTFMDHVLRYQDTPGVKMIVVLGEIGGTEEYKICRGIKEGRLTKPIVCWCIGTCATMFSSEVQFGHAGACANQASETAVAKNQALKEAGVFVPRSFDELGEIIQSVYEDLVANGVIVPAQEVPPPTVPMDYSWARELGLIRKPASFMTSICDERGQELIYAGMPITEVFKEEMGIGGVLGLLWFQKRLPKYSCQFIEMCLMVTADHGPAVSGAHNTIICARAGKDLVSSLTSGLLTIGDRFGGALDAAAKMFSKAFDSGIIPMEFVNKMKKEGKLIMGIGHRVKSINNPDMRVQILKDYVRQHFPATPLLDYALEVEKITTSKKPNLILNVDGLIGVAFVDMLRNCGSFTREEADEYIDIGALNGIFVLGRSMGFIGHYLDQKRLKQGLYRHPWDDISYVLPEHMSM
FLG2 (Filaggrin-2) (Homo sapiens), sequence (Q5D862 whole entry): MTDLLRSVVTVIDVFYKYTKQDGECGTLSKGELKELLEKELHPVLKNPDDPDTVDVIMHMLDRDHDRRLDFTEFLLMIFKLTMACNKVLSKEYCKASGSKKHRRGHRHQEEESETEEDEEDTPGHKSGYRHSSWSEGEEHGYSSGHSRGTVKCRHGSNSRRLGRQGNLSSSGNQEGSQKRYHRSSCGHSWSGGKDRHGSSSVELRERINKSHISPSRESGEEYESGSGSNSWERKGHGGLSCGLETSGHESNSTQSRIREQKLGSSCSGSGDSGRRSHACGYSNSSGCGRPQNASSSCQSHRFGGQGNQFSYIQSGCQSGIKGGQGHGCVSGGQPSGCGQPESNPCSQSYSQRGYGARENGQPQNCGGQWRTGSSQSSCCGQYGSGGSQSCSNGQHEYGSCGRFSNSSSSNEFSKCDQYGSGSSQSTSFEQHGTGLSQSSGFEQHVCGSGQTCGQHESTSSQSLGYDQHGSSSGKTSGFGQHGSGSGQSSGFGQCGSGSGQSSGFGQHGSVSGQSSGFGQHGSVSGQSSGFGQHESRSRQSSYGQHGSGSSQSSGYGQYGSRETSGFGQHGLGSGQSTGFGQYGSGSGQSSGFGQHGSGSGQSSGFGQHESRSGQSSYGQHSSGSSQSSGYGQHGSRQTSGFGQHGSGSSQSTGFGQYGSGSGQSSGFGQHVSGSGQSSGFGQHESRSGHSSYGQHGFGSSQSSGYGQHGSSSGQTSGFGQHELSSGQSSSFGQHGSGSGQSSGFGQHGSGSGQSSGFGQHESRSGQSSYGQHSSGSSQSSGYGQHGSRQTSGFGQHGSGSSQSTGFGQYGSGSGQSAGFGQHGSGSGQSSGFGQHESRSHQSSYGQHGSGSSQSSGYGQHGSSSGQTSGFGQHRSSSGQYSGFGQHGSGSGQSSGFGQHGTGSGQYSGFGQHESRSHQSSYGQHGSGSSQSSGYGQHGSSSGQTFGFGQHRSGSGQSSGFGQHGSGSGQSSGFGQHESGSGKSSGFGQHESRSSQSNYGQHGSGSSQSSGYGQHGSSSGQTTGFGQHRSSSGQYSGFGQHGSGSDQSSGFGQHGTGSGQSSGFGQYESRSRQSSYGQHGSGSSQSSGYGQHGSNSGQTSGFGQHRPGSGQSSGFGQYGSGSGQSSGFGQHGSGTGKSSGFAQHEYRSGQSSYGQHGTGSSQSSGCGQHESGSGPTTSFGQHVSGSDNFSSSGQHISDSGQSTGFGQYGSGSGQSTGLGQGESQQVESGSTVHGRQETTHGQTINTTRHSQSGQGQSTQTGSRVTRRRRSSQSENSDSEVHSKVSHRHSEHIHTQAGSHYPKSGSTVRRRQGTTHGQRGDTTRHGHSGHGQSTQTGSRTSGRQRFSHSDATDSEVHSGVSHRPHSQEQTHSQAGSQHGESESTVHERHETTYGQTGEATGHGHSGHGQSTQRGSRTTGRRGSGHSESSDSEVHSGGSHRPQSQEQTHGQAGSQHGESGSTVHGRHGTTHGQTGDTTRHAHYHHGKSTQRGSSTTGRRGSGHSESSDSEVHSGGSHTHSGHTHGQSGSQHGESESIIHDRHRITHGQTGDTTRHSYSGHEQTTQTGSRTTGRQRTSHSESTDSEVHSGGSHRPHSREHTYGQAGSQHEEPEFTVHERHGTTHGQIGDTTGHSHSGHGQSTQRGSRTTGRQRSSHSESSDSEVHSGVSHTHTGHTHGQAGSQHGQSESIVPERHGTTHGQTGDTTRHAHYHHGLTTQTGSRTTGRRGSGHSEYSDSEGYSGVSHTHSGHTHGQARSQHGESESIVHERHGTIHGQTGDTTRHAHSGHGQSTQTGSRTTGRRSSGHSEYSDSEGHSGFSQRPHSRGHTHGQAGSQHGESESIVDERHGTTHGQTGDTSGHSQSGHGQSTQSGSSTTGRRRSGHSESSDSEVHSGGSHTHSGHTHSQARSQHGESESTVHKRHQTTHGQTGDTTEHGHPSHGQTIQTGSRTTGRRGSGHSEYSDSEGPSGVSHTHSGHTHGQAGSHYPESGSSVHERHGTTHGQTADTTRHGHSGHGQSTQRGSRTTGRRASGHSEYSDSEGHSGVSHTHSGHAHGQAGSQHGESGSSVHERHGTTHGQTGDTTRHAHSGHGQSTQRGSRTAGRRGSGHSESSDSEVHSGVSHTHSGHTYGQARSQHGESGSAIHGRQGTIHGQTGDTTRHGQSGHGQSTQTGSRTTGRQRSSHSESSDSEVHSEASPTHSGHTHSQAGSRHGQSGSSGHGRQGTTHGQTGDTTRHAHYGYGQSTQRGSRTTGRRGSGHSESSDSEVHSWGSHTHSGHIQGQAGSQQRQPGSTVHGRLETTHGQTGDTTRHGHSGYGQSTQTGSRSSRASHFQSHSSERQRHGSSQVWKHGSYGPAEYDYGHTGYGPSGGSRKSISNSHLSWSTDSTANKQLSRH

lnc-FAM164A1 antisense RNA
< 0.5: all assays above
